In assay [1] the target is human-mouse chimeric molecule DR-IE (human; mouse). Kind of assay: cell-based or functional assay.
Another assay deals with T1, bovine serum albumine (bovine, UniProt P02769 25-607).
T1 construct: negative control protein; also called BSA
Kind of assay: ELISA, antigen coated at 10 µg/well. On the procedure: (§1) After washing in PBS the anti-human IgG F(ab)₂-peroxidase-conjugate at a 1:10,000 dilution in TBS (supplemented with 5% w/v non-fat dry-milk/0.05% v/v Tween 20) was added to each well for 1 h. Final washes were carried out in PBS followed the addition the substrate POD (Roche). Color-development was read at 370 nm in an ELISA-Reader.

For a further assay, the target named is T2, human apotransferrin (human, UniProt P02787 20-698).
T2 construct: negative control protein
Briefly: ELISA, antigen coated at 10 µg/well. How it is done:
as §1
For orientation: ELISA stands for enzyme-linked immunosorbent assay.

Assay [2] has as its target T3, human MHC class II DR protein (DRA*0101/DRB1*0401), purified from PRIESS cells (human, UniProt P01903 26-254; P01911 30-266, limits assumed).
T3 construct: mature; 'mature' is my reading; also called HLA-DR protein; MHCII
T3 MHC II alpha: not shown
T3 MHC II beta: not shown
Briefly: SPR (BIAcore), Fab, 3 chips (500, 4000, 3000RU). For orientation: Surface plasmon resonance follows binding to a sensor surface in real time, without labels.

T1 sequence (P02769 25-607 limits assumed): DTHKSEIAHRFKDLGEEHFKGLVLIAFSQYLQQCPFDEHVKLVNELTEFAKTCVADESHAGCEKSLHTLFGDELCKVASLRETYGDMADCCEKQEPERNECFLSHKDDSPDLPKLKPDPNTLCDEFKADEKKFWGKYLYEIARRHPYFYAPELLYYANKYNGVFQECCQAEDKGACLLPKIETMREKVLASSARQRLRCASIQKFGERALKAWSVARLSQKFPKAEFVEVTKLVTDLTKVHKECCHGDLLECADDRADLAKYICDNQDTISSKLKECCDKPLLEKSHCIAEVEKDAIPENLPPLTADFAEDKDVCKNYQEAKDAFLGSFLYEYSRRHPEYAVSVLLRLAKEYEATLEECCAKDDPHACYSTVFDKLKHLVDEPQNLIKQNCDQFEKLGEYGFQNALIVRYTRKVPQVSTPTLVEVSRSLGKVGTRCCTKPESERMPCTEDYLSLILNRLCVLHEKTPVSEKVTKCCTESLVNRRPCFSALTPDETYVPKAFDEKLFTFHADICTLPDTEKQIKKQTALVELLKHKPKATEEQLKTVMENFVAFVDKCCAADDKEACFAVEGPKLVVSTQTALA
T2 sequence (P02787 20-698): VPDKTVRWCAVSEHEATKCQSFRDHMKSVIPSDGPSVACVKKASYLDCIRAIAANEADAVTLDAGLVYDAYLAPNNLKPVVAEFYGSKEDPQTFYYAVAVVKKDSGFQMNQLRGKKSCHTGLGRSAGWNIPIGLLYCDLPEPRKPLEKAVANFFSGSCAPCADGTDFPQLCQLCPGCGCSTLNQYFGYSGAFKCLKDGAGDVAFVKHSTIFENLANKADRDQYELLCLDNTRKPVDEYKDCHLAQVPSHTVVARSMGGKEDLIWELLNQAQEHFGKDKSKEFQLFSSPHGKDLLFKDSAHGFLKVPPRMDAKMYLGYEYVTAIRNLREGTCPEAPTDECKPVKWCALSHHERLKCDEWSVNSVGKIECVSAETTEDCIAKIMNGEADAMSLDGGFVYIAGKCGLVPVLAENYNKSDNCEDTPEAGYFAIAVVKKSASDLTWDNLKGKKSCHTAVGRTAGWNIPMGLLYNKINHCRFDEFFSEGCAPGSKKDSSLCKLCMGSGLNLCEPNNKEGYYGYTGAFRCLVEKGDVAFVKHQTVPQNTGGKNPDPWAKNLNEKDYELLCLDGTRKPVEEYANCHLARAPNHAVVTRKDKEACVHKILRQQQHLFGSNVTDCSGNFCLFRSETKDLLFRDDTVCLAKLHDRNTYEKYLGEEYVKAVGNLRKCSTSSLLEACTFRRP

B1: MS-GPC-8-6 (Fab form) (Fab, V domains shown)
VH: QVQLKESGPALVKPTQTLTLTCTFSGFSLSTSGVGVGWIRQPPGKALEWLALIDWDDDKYYSTSLKTRLTISKDTSKNQVVLTMTNMDPVDTATYYCARSPRYRGAFDYWGQGTLVTVSS
VL: DIVLTQPPSVSGAPGQRVTISCSGSSSNIGSNYVSWYQQLPGTAPKLLIYDNNQRPSGVPDRFSGSKSGTSASLAITGLQSEDEADYYCQSYDYDHYVFGGGTKLTVLG
notes: Fab: VH-CH1-FLAG-STREP tag II
Usually Kd stands for the constant that tells how readily two partners part at equilibrium. A lower Kd goes with a tighter complex. As a reminder, the kon is the second-order rate constant of association. Lower therefore signals slower complex formation. As for B1, in assay [1], the “IC50, inhibition of IL-2 secretion of T-Hyb 1 cells” value is 20 nM ((Fab)/2) and the “Maximum inhibition(%) of IL-2 secretion” value is 100%. Besides, in the assay with bovine serum albumine, the binding result is given as “no binding (tested: 100 ng/well)”. In addition, the binding result with human apotransferrin is “no binding (tested: 100 ng/well)”. In addition, in assay [2], the Kd is 8 nM and the on-rate constant (kon) was 120000 M⁻¹ s⁻¹.

For the origin of these results see patent US20090325290A1 (published 2009).
